Measurements from patent publication US20210130455A1 (KEIO UNIVERSITY, published 2021).

T1: peptide used for immunization (SEQ ID NO:1), ATYPSGHLDM (human and mouse (identical sequence))
T1 construct: Synthetic peptide; also called immunogen peptide; synthetic peptide
T1 peptide: ATYPSGHLDM

T2: human AQP3 on the cell surface (HaCaT cells, A431 cells, HEK293 cells stably overexpressing human AQP3) (human, UniProt Q92482 1-292)
T2 construct: whole, on cells; Membrane water channel; also called human aquaporin 3
T2 sequence (looked up): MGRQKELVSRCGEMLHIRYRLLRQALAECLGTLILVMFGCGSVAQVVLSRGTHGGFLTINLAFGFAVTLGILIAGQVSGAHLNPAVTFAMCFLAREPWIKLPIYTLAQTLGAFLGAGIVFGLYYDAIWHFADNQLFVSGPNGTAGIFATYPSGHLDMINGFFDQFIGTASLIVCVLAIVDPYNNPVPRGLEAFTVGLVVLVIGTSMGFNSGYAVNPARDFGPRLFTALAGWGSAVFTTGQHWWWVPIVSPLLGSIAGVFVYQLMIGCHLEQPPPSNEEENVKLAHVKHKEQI

T3: mouse AQP3 on the cell surface (PAM212 cells, mouse macrophage cells, HEK293 cells stably overexpressing … (mouse, UniProt Q8R2N1 1-292))
T3 construct: whole, on cells; Membrane water channel; also called mouse aquaporin 3
T3 sequence (looked up): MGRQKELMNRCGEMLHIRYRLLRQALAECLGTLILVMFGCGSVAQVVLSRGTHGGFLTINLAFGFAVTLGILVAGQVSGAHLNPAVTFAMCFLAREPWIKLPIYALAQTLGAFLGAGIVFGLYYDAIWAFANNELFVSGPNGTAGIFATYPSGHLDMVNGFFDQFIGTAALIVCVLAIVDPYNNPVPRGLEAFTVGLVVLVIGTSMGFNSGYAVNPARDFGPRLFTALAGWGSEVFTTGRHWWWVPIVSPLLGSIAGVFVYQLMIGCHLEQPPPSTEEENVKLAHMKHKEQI

T4: mouse AQP3 in cell lysate of HEK293T cells overexpressing mouse AQP3 and a myc-biotinylated tag (mouse, UniProt Q8R2N1 1-292, biotinylated tag (site not given))
T4 construct: also called AQP3 (cell lysate); not shown: myc-biotinylated tag
T4 sequence (looked up): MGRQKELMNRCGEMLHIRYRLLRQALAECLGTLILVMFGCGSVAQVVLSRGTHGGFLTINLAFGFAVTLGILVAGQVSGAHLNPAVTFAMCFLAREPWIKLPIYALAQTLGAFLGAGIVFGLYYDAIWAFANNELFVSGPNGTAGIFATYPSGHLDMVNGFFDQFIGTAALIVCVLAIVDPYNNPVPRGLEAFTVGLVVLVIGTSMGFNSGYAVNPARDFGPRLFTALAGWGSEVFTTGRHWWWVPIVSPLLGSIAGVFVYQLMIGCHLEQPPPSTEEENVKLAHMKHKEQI


Tests used:
[1] = molecular target: T1, peptide used for immunization (SEQ ID …); experiment: ELISA on the immunogen peptide SEQ ID NO:1
Procedure: Binding of antibodies A, B, C, D, E, F, G, H, J, and K to the peptide used for immunization (SEQ ID NO:1) was tested in an ELISA assay. […] Thus, antibodies A, D, and F may therefore bind to AQP3 at a different epitope.

[2] = molecular target: T2, human AQP3 on the cell surface (HaCaT …); experiment: fluorescence of a labelled secondary antibody on HaCaT cells; antibody at 10 µg/mL
Procedure: (§1) PAM212 and macrophage cells were reacted with each anti AQP3 antibody (0.1, 1, or 10 μg/mL) at 4° C. for 1 hour. After washing the cells, a fluorescent-labeled anti mouse secondary antibody was added and the reaction was allowed to occur additionally for 1 hour (4° C.). By measuring the fluorescence intensity, the binding property of each anti AQP3 antibody to cells was obtained.
The assay was also performed using HaCaT cells and antibodies A, B, C, D, E, F, G, H, and J at a concentration of 10 μg/mL. Binding of antibodies C, D, E, H, and J to HaCaT cells was statistically significant. The results obtained by performing a FACS assay using HaCaT, which are human epithelial cells, and antibody G, antibody H, or antibody J are shown in FIG. 6A-6C, respectively. HaCaT cells were treated with Cell Dissociation Buffer for 30 minutes at 37° C., and then dislodged and collected. Then, the cells were reacted with 10 μg/mL anti AQP3 antibody at 4° C. for 1 hour. After washing the cells, a fluorescent-labeled anti mouse secondary antibody was added and the reaction was allowed to occur additionally for 1 hour (4° C.). Then, by using a flow cytometer, fluorescence intensity was measured (FIG. 6A to FIG. 6C). FIG. 6A represents the result of a case in which antibody G was used, FIG. 6B represents the result of a case in which antibody H was used, and FIG. 6C represents the result of a case in which antibody J was used. […] The histogram expressed with bold line represents a case in which the anti AQP3 antibody was used while the histogram expressed with thin gray line represents a case as a control in which the anti AQP3 antibody was not used (addition of non-specific IgG). […] Ratio (%) of the cells included in this range (=cells showing positive staining by anti AQP3 antibody) is also shown in the drawing.

[3] = molecular target: T3, mouse AQP3 on the cell surface (PAM212 …); experiment: fluorescence of a labelled secondary antibody on PAM212 cells; antibody at 10 µg/mL
Procedure: as §1
The assay was also performed using PAM212 cells and antibodies A, B, C, D, E, F, G, H, and J at a concentration of 10 μg/mL. Binding of antibodies C, D, E, G, and J to PAM212 cells was statistically significant.

[4] = molecular target: T4, mouse AQP3 in cell lysate of HEK293T …; experiment: ELISA on lysate of HEK293T cells overexpressing mouse AQP3 and a myc-biotinylated tag
Excerpt: Cell lysate from HEK293T cells overexpressing mouse AQP3 and a myc-biotinylated tag was used in an ELISA assay to measure the binding of antibodies A, B, C, D, E, F, G, H, J, and K to AQP3. Cell lysate from HEK293T cells overexpressing the myc-biotinylated tag but not AQP3 was used as control.

[5] = molecular target: T3, mouse AQP3 on the cell surface (PAM212 …); experiment: FACS on HEK293 cells stably overexpressing mouse AQP3; antibody at 10 µg/mL
Procedure: A FACS assay was also performed using HEK293 cells stably overexpressing mouse AQP3. Cells were incubated with antibody E, H, J, or negative control IgG at a concentration of 10 μg/mL for one hour and then sorted by FACS. Separately, HEK293 cells stably overexpressing human AQP3 were incubated with antibody E at a concentration of 10 μg/mL for one hour and then sorted by FACS.

[6] = molecular target: T2, human AQP3 on the cell surface (HaCaT …); experiment: flow cytometry on HaCaT cells; antibody at 10 µg/mL
Procedure: The assay was also performed using HaCaT cells and antibodies A, B, C, D, E, F, G, H, and J at a concentration of 10 μg/mL. Binding of antibodies C, D, E, H, and J to HaCaT cells was statistically significant. The results obtained by performing a FACS assay using HaCaT, which are human epithelial cells, and antibody G, antibody H, or antibody J are shown in FIG. 6A-6C, respectively. HaCaT cells were treated with Cell Dissociation Buffer for 30 minutes at 37° C., and then dislodged and collected. Then, the cells were reacted with 10 μg/mL anti AQP3 antibody at 4° C. for 1 hour. After washing the cells, a fluorescent-labeled anti mouse secondary antibody was added and the reaction was allowed to occur additionally for 1 hour (4° C.). Then, by using a flow cytometer, fluorescence intensity was measured (FIG. 6A to FIG. 6C). FIG. 6A represents the result of a case in which antibody G was used, FIG. 6B represents the result of a case in which antibody H was used, and FIG. 6C represents the result of a case in which antibody J was used. […] The histogram expressed with bold line represents a case in which the anti AQP3 antibody was used while the histogram expressed with thin gray line represents a case as a control in which the anti AQP3 antibody was not used (addition of non-specific IgG). […]

[7] = molecular target: T3, mouse AQP3 on the cell surface (PAM212 …); experiment: fluorescence of a labelled secondary antibody on mouse macrophage cells; antibody at 0.1, 1 and 10 µg/mL
Procedure: as §1
The testing was also carried out using solvent (Veh) or a non-specific IgG (IgG) controls. In FIG. 4, the vertical axis represents fluorescence intensity, and the mean fluorescence intensity of each sample is represented by bar height together with standard error.

Binder | binding result [1] | binding result [2] | binding result [3] | binding result [4] | binding result [5] | binding result [6] | binding result [7]
antibody E (antibody, mouse IgG2a, kappa, V domains shown, also called anti AQP3 mAb E) VH: EVKLLESGAELVRPGASVTLSCKASGYTFTDYEMHWVKQTPVHGLEWIGGIDPESGGTGYNQKFKGKAILTADKSSSTAYMELRSLTSEDSAVYFCTRSGYYGSPLLDYWGQGTTLTVSS VL: QIVLSQSPAIMSASLGERVTMTCTASSSVSSSYLHWYQQKPGSSPKLWIYSTSNLASGVPARFSGSGSGTSYSLTISSMEAEDAATYYCHQYHRSPPTFGAGTKLEIKR | binds | binds | binds | binds |  |  | 
antibody F (antibody, mouse IgG2a, kappa, V domains shown, also called anti AQP3 mAb F) VH: QVQLKESGPELVKPGASVKISCKASGYTFTDYYINWVKQRPGQGLEWIGWIFPGSGSTYYNEKFKGKATLTVDKSSSTAYMLLSSLTSEDSAVYFCADYGSSYRYFDVWGAGTTVTVSS VL: DIVMTQSPAILSASPGEKVTMTCRASSSVSYMHWYQQKPGSSPKPWIYATSYLASGVPARFSGSGSGTSYSLTIGRVEAEDAATYYCQQWSSNPLTFGAGTKLELKR |  |  |  | binds |  |  | 
antibody B (antibody, mouse IgG2a, kappa, V domains shown, also called anti AQP3 mAb B) VH: EVQLVESGGDLVKPGGSLKLSCAASGFTFSSYGMSWVRQTPDKRLEWVATISRGSIYTYYPDSVKGRFTISRDNAKNTLYLQMSSLKSEDTAMYYCARLSLYDYDGARYTMDYWGQGTSVTVSS VL: DIVMTQSPKFMSTSVGDRVSITCKASQDVGTAVAWYQQKPGQSPKLLIYWASTRHTGVPDRFTGSGSGTDFTLTISNVQSEDLADYFCQQYSSYHTFGAGTKLELKR | binds |  |  | binds |  |  | 
antibody G (antibody, mouse IgG2a, kappa, V domains shown, also called anti AQP3 mAb G) VH: QVQLKQSGAELVRPGASVTLSCKASGYTFTDYEMHWVKQTPVHGLEWIGGIDPETGGTAYNQKFKGKAILTADKSSSTAYMELRSLTSEDSAVYYCTRWGAITSFVALRGFAYWGQGTLVTVSS VL: DIQMTQSPSSLSVSAGEKVTMSCKSSQSLLNSGNQKNYLAWYQQKPGQPPKLLIYGASTRESGVPDRFTGSGSGTDFTLTISSVQAEDLAVYYCQNDHSYPPTFGAGTKLELKR | binds |  | binds | binds |  | binds | 
antibody C (antibody, mouse IgG2a, kappa, V domains shown, also called anti AQP3 mAb C) VH: QVQLKQSGAELARPGASVKLSCKASGYNFKSYGISWVKQRTGQGLEWIGEIYPGSGNTYYNEKLKGKATLTADKSSSTAYMELRSLTSEDSAVYFCARTYGYDSFPWFAYWGQGTLVTVSS VL: DIVMTQAAPSVPVTPGESVSISCRSSKSLLHSNGNTYLYWFLQRPGQSPQLLIYRVSNLASGVPDRFSGSGSGTAFTLRISRVEAEDEGVYYCMQHLEYPFTFGAGTKLEIKR | binds | binds | binds | binds |  |  | 

More lines, now with the values ahead:

binding result [1] | binding result [2] | binding result [3] | binding result [4] | binding result [5] | binding result [6] | binding result [7] | Binder
binds | binds |  | binds | binds |  |  | antibody H (antibody, mouse IgG2a, kappa, V domains shown, also called anti AQP3 mAb H) VH: EVKLVESGGDLVKPGGSLKLSCAASGFTFSSYGMSWVRQTPDKRLEWVATISRRSIYTYYPDSVQGRFTISRDNAKNTLYLQMSSLKSEDTAMYYCARLSLYDYDGARYTMDYWGQGTSVTVSS VL: DIKMTQSPKFMSTSVGDRVSITCKASQDVGTAVAWYQQKPGQSPKLLIYWASTRHTGVPDRFTGSGSGTDFTLTISNVQSEDLADYFCQQYSSYHTFGAGTKLEIKR
binds |  |  | binds |  |  |  | antibody K (antibody, mouse IgG2a, kappa, V domains shown, also called anti AQP3 mAb K) VH: QVQLKQSGAELVRPGTSVKVSCKASGYAFTNYLIEWVKQRPGQGLEWIGVINPGSGGTNYNEKFKGKATLTADKSSSTAYMQLSSLTSEDSAVYFCARWGFYYAMDYWGQGTSVTVSS VL: DIVMTQSPSSLSASLGERVSLTCRASQEISGYLSWLQQKPDGTIKRLIYAASTLDSGVPKRFSGSRSGSDYSLTISSLESEDFADYYCLQYASYPLTFGAGTKLEIKR
binds | binds |  | binds |  |  | binds | antibody J (antibody, mouse IgG2a, kappa, V domains shown, also called anti AQP3 mAb J; Ab) VH: QVHLQQSGTELVKPGASVKLSCEASGYTFTSYWMHWVKQRPGQGLEWIGNINPSNGGTNYNEKFKSKATLTVDKSSSTAYMQLSSLTSEDSAVYYCARGGIYYGNYDYYAMDYWGQGTSVTVSS VL: DIVMTQAAPSVPVTPGESVSISCRSSKSLLHSNGNTYLYWFLQRPGQSPQLLIYRVSNLASGVPDRFSGSGSGTAFTLRISRVEAEDVGVYYCMQHLEYPFTFGGGTKLEIKR
 | binds | binds | binds |  |  |  | antibody D (antibody, mouse IgG2a, kappa, V domains shown, also called anti AQP3 mAb D) VH: EVQLQQSGAELVRPGASVTLSCKASGYTFTDYEMHWVQQTPVHGLEWIGGIDPETGGTGYNQKFKGKAILTADKSSSTAYMELRSLTSEDSAVYFCTRHGSYAMDYWGQGTSVTVSS VL: DIVMTQSPKFMSTSVGDRVSITCKASQDVSTAVAWYQQKPGQSPKLLIYWASTRHTGVPDRFTGSGSGTDYTLTISSVQAEDLALYYCQQHYSTPPTFGGGTRLEIKR
 |  |  | binds |  |  |  | antibody A (antibody, mouse IgG2a, kappa, V domains shown, also called anti AQP3 mAb A) VH: QVQLQQPGAELVRPGASVTLSCKASGYTFTDYEMHWVKQTPVHGLEWIGGVDPETGGTGYNQKFRGKAILTADKSSSTAYMELRSLTSEDSAVYYCARHGGSFYAMDYWGQGTSVTVSS VL: DIVMTQSPKFMSTSVGDRVSITCKASQDVSTAVAWYQQKPGQSPKLLIYWASTRHTGVPDRFTGSGSGTDYTLTISSVQAEDLALYYCQQHYSTPPTFGGGTKLELKR
